This is an account of results in the Immune Epitope Database (IEDB).

Some results are limits rather than exact numbers.

Test [1] addresses HLA-B*51:01. Put plainly: IEDB peptide-MHC binding, purified MHC/competitive/fluorescence; filed as Kd, often an IC50 or EC50 that approximates it; ≥ and ≤ were set here for values at or beyond the usual limits of such assays. Conditions: source organism: Yersinia pestis Nepal516.
Test [2] addresses HLA-B*39:01. Described as above.
For test [3], the target named is HLA-B*07:02. Described as above.
Test [4] deals with HLA-B*35:01. Described as above.
The target of test [5] is HLA-B*15:42. The description is as above. The note with it: source organism: dengue virus type 1.
Test [6] addresses HLA-B*83:01. The test is described as above. Conditions: source organism: dengue virus type 1.
Test [7] has as its target HLA-B*45:06. The test is described as above. Conditions: source organism: dengue virus type 1.
The target of test [8] is HLA-B*44:03. Briefly: IEDB peptide-MHC binding, purified MHC/competitive/radioactivity; filed as Kd, often an IC50 or EC50 that approximates it; ≥ and ≤ were set here for values at or beyond the usual limits of such assays.
Test [9] concerns the target HLA-B*44:02. Briefly: IEDB peptide-MHC binding, purified MHC/direct/fluorescence; filed as Kd, often an IC50 or EC50 that approximates it; ≥ and ≤ were set here for values at or beyond the usual limits of such assays. The note with it: source organism: Dengue virus 1 Singapore/S275/1990.
For test [10], the target named is HLA-A*02:06. Briefly: IEDB peptide-MHC binding, purified MHC/competitive/radioactivity; filed as Kd, often an IC50 or EC50 that approximates it; ≥ and ≤ were set here for values at or beyond the usual limits of such assays. Conditions: source organism: Dengue virus 4 Philippines/H241/1956.
The target of test [11] is HLA-A*02:17. The test is described as above.
The target in test [12] is HLA-A*02:01. Described as above.
For test [13], the target named is HLA-A*11:01. Put plainly: IEDB peptide-MHC binding, purified MHC/competitive/fluorescence; ≥ and ≤ were set here for values at or beyond the usual limits of such assays.
For test [14], the target named is HLA-A*03:01. Described as above.
Test [15] concerns the target HLA-A*24:02. Briefly: IEDB peptide-MHC binding, purified MHC/competitive/fluorescence; filed as Kd, often an IC50 or EC50 that approximates it; ≥ and ≤ were set here for values at or beyond the usual limits of such assays.
Test [16] concerns the target HLA-A*02:03. Put plainly: IEDB peptide-MHC binding, purified MHC/competitive/radioactivity; filed as Kd, often an IC50 or EC50 that approximates it; ≥ and ≤ were set here for values at or beyond the usual limits of such assays.
The target in test [17] is HLA-A*68:02. Described as above. Conditions: source organism: Dengue virus 4 Philippines/H241/1956.
For test [18], the target named is HLA-B*44:02. The description is as above.
Test [19] has as its target HLA-B*40:01. Described as above.
Test [20] deals with HLA-B*40:02. The description is as above.
Test [21] addresses HLA-B*18:01. Described as above.
Test [22] concerns the target HLA-B*45:01. The test is described as above.
[23] abbreviates: source organism: Yersinia pestis Nepal516.
Setting [24] is: source organism: Salmonella enterica subsp. enterica serovar Typhi.
Where [25] appears, read: source organism: Dengue virus 4 Philippines/H241/1956.
[26] abbreviates: source organism: Dengue virus 3 China/80-2/1980.
[27] abbreviates: source organism: Zaire ebolavirus.
The mark [28] stands for this setting: source organism: Mammarenavirus guanaritoense.
The mark [29] stands for this setting: source organism: Mammarenavirus juninense.
Setting [30] is: source organism: Dengue virus 2 Thailand/NGS-C/1944.

By Kd is commonly meant the free concentration of one partner at which half of the binding sites on the other are occupied at equilibrium, for simple one-to-one binding. The term IC50 denotes the concentration that gives 50% inhibition. A high value points to a need for much substance.

Turning to FPVAMLSCL, the dissociation constant (Kd) in test [1] is 186 nM; in test [2] (setting [23]), 18.5 nM; in [3] (setting [23]) it was 15.7 nM; in test [4] (setting [23]), no more than 0.1 nM.

Take RMKWMMAM: the dissociation constant (Kd) in test [3] (source organism: Influenza A virus H3N2) came out at 3250 nM.

For SEMGANFRA, the Kd in test [5] was no less than 5000 nM; in [6] it was no less than 5000 nM; in [7], no less than 5000 nM; in test [8] (source organism: Dengue virus 1 Brazil/97-11/1997) it was 48.9 nM; in test [9], no less than 37700 nM.

For the sequence WPDVFSVSV, the figures for the Kd in [2] (setting [24]), in [3] (setting [24]) and in test [4] (setting [24]) were 3.8 nM, 65.7 nM and 1.3 nM, respectively.

With TMTLWYMWQV, the Kd worked out at 74.5 nM in test [10], 433 nM in [11] (setting [25]) and 28.8 nM in test [12] (setting [25]).

Turning to SKSMRDQRK, the IC50 in [13] (source organism: Variola virus) is 21100 nM; in test [14] (source organism: Variola virus), no less than 246000 nM.

On to SFFYRYGF, for which, in [15] (source organism: Influenza A virus (A/Fort Monmouth/1/1947-mouse adapted(H1N1))), the dissociation constant (Kd) is 35.7 nM.

On to ALFSGVSWI, for which the Kd in test [11] (setting [26]) amounted to 483 nM; in test [16] (source organism: Dengue virus 3 Singapore/8120/1995), 1.58 nM; in test [12] (setting [26]), 0.51 nM.

On to RARIKTRLFTI, for which, in test [3] (source organism: Influenza A virus (A/X-31(H3N2))), the Kd was determined as 733 nM.

Take MVIGMAMTTV: the Kd in [10] came to 5.3 nM; in test [11] (setting [25]) it was 132 nM; in test [16] (setting [25]), 0.14 nM; in test [12] (setting [25]), 9.36 nM; in [17], 3.27 nM.

On to QLQQYAESR, for which the results for the 50% inhibitory concentration (IC50) in test [13] (setting [27]) and in test [14] (setting [27]) were 18700 nM and no less than 240000 nM, respectively.

Take IYLNEVNTF: in test [15] (source organism: Vibrio splendidus 12B01), the dissociation constant (Kd) is no more than 0.1 nM.

As for YEERLNEQLL, the dissociation constant Kd in test [18] (setting [28]) was no less than 10000 nM; in test [19] (setting [28]), 2480 nM; in test [20] (setting [28]), 1640 nM; in [21] (setting [28]) it was 5990 nM; in test [8] (setting [28]), 14600 nM; in [22] (setting [28]), no less than 70000 nM.

Turning to PDSCLNGKL, the dissociation constant (Kd) in test [18] (setting [29]) is no less than 77900 nM; in test [19] (setting [29]) it was no less than 67900 nM; in test [20] (setting [29]), no less than 77200 nM; in test [21] (setting [29]) it was no less than 20100 nM; in [8] (setting [29]), no less than 78100 nM; in test [22] (setting [29]) it was no less than 25600 nM.

As for LLVLCVTQV, the Kd was no less than 5000 nM in test [11] (setting [30]), 38.4 nM in test [16] (source organism: Dengue virus 2 Peru/IQT2913/1996) and 64.9 nM in test [12] (setting [30]).
